From article PMC11499264, “RNA m5C oxidation by TET2 regulates chromatin state and leukaemogenesis” come the findings set out here.

In this data set the target is T1, MBD6 MBD domain-MBP-His (Homo sapiens, UniProt Q96DN6 1-100).
T1 sequence: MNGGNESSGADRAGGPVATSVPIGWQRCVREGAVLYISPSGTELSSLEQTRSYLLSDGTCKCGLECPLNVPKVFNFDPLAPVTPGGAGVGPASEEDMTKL
In words: EMSA; 0-100 uM protein; preferred over C and hm5C probes; 100 nM FAM probe, 20 mM HEPES pH 7.5, 40 mM KCl, 10 mM MgCl2, 0.1% Triton X-100, 10% glycerol, 1x RNaseOUT, on ice 30 min; 10% TBE gel, 0.5x TBE, 4 C. The note with it: protein: recombinant; tags: C-terminal MBP-6xHis; label: 5' 6-FAM; single strand. A general note: In EMSA bound probe runs differently from free probe, usually more slowly.

B1: p1-m5C (ss) (ssDNA)
DNA: TATGACCTGCGGTATGACCTGCGGTATGACCTGCGG
modifications: 5-methyl-dC at positions 7, 19, 31
Take B1: the binding result was “binds”.
